Article PMC2744881 (Journal of molecular biology, 2009)

T1: N-terminally His10-tagged SufC protein (E. coli, UniProt P77499 1-248)
T1 sequence (looked up): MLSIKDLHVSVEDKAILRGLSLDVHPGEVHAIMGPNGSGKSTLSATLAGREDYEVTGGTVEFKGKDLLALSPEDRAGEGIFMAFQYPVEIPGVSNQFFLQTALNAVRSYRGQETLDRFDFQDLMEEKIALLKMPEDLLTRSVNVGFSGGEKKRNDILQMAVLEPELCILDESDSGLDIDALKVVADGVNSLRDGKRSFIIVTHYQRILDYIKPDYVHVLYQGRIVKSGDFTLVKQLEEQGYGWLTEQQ

T2: SufD of the purified SufB-SufC-SufD complex (E. coli, UniProt P77689 1-423)
T2 sequence: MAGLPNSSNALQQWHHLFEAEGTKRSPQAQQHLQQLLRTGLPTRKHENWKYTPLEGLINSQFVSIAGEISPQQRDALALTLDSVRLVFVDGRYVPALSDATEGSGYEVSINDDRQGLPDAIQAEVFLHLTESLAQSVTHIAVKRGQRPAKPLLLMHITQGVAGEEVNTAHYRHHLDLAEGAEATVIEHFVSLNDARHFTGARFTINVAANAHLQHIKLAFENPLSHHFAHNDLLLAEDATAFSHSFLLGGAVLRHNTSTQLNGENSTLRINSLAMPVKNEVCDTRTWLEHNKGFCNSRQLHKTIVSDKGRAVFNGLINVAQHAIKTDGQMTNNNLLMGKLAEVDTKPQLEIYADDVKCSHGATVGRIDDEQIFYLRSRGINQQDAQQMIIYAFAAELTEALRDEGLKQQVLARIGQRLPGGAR

B1: SufB of the purified SufB-SufC-SufD complex (natural protein, E. coli, UniProt P77522 1-495, looked up)
chain: MSRNTEATDDVKTWTGGPLNYKEGFFTQLATDELAKGINEEVVRAISAKRNEPEWMLEFRLNAYRAWLEMEEPHWLKAHYDKLNYQDYSYYSAPSCGNCDDTCASEPGAVQQTGANAFLSKEVEAAFEQLGVPVREGKEVAVDAIFDSVSVATTYREKLAEQGIIFCSFGEAIHDHPELVRKYLGTVVPGNDNFFAALNAAVASDGTFIYVPKGVRCPMELSTYFRINAEKTGQFERTILVADEDSYVSYIEGCSAPVRDSYQLHAAVVEVIIHKNAEVKYSTVQNWFPGDNNTGGILNFVTKRALCEGENSKMSWTQSETGSAITWKYPSCILRGDNSIGEFYSVALTSGHQQADTGTKMIHIGKNTKSTIISKGISAGHSQNSYRGLVKIMPTATNARNFTQCDSMLIGANCGAHTFPYVECRNNSAQLEHEATTSRIGEDQLFYCLQRGISEEDAISMIVNGFCKDVFSELPLEFAVEAQKLLAISLEHSVG

What was measured:
crystal structure = biological target: the molecule itself; experiment: crystal structure
[1] = biological target: T1, N-terminally His10-tagged SufC protein; experiment: SEC
SEC = biological target: the molecule itself; experiment: SEC
[2] = biological target: B1; experiment: SEC
[3] = biological target: T2, SufD of the purified SufB-SufC-SufD …; experiment: SEC

Row | Binder | stoichiometry N (SEC) | stoichiometry N [3] | also measured
1 | SufD protein (natural protein, E. coli, UniProt P77689 1-423, looked up) MAGLPNSSNALQQWHHLFEAEGTKRSPQAQQHLQQLLRTGLPTRKHENWKYTPLEGLINSQFVSIAGEISPQQRDALALTLDSVRLVFVDGRYVPALSDATEGSGYEVSINDDRQGLPDAIQAEVFLHLTESLAQSVTHIAVKRGQRPAKPLLLMHITQGVAGEEVNTAHYRHHLDLAEGAEATVIEHFVSLNDARHFTGARFTINVAANAHLQHIKLAFENPLSHHFAHNDLLLAEDATAFSHSFLLGGAVLRHNTSTQLNGENSTLRINSLAMPVKNEVCDTRTWLEHNKGFCNSRQLHKTIVSDKGRAVFNGLINVAQHAIKTDGQMTNNNLLMGKLAEVDTKPQLEIYADDVKCSHGATVGRIDDEQIFYLRSRGINQQDAQQMIIYAFAAELTEALRDEGLKQQVLARIGQRLPGGAR | – | – | stoichiometry N (crystal structure): 2; stoichiometry N [1]: ~1
2 | N-terminal His-tag SufD with H360S mutation (natural protein, E. coli) MAGLPNSSNALQQWHHLFEAEGTKRSPQAQQHLQQLLRTGLPTRKHENWKYTPLEGLINSQFVSIAGEISPQQRDALALTLDSVRLVFVDGRYVPALSDATEGSGYEVSINDDRQGLPDAIQAEVFLHLTESLAQSVTHIAVKRGQRPAKPLLLMHITQGVAGEEVNTAHYRHHLDLAEGAEATVIEHFVSLNDARHFTGARFTINVAANAHLQHIKLAFENPLSHHFAHNDLLLAEDATAFSHSFLLGGAVLRHNTSTQLNGENSTLRINSLAMPVKNEVCDTRTWLEHNKGFCNSRQLHKTIVSDKGRAVFNGLINVAQHAIKTDGQMTNNNLLMGKLAEVDTKPQLEIYADDVKCSSGATVGRIDDEQIFYLRSRGINQQDAQQMIIYAFAAELTEALRDEGLKQQVLARIGQRLPGGAR | 2 | – | –
3 | N-terminal His-tag SufD with H360C mutation (natural protein, E. coli) MAGLPNSSNALQQWHHLFEAEGTKRSPQAQQHLQQLLRTGLPTRKHENWKYTPLEGLINSQFVSIAGEISPQQRDALALTLDSVRLVFVDGRYVPALSDATEGSGYEVSINDDRQGLPDAIQAEVFLHLTESLAQSVTHIAVKRGQRPAKPLLLMHITQGVAGEEVNTAHYRHHLDLAEGAEATVIEHFVSLNDARHFTGARFTINVAANAHLQHIKLAFENPLSHHFAHNDLLLAEDATAFSHSFLLGGAVLRHNTSTQLNGENSTLRINSLAMPVKNEVCDTRTWLEHNKGFCNSRQLHKTIVSDKGRAVFNGLINVAQHAIKTDGQMTNNNLLMGKLAEVDTKPQLEIYADDVKCSCGATVGRIDDEQIFYLRSRGINQQDAQQMIIYAFAAELTEALRDEGLKQQVLARIGQRLPGGAR | 2 | – | –
4 | wild-type SufD (reference of the gel filtration of His-tagged SufD proteins) (natural protein, E. coli) MAGLPNSSNALQQWHHLFEAEGTKRSPQAQQHLQQLLRTGLPTRKHENWKYTPLEGLINSQFVSIAGEISPQQRDALALTLDSVRLVFVDGRYVPALSDATEGSGYEVSINDDRQGLPDAIQAEVFLHLTESLAQSVTHIAVKRGQRPAKPLLLMHITQGVAGEEVNTAHYRHHLDLAEGAEATVIEHFVSLNDARHFTGARFTINVAANAHLQHIKLAFENPLSHHFAHNDLLLAEDATAFSHSFLLGGAVLRHNTSTQLNGENSTLRINSLAMPVKNEVCDTRTWLEHNKGFCNSRQLHKTIVSDKGRAVFNGLINVAQHAIKTDGQMTNNNLLMGKLAEVDTKPQLEIYADDVKCSHGATVGRIDDEQIFYLRSRGINQQDAQQMIIYAFAAELTEALRDEGLKQQVLARIGQRLPGGAR | 2 | – | –
5 | SufC of the purified SufB-SufC-SufD complex (natural protein, E. coli) MLSIKDLHVSVEDKAILRGLSLDVHPGEVHAIMGPNGSGKSTLSATLAGREDYEVTGGTVEFKGKDLLALSPEDRAGEGIFMAFQYPVEIPGVSNQFFLQTALNAVRSYRGQETLDRFDFQDLMEEKIALLKMPEDLLTRSVNVGFSGGEKKRNDILQMAVLEPELCILDESDSGLDIDALKVVADGVNSLRDGKRSFIIVTHYQRILDYIKPDYVHVLYQGRIVKSGDFTLVKQLEEQGYGWLTEQQ | – | ~2 | stoichiometry N [2]: ~2
6 | B1 | – | ~1 | –
